{"source": "paper PMC13544220", "about": "“Glycemic and bodyweight effects of GIPR coding variation reflect differences in surface expression and intrinsic functional impairment” (Science Advances, 2026);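 for AD293 100 nM HTRF: ratio to experiment-wide average response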;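 for AD293 100 nM cADDis: Ensemble cells as % of IBMX/FSK response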;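 for AD293 100 pM HTRF: ratio to experiment-wide average response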;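 for AD293 100 pM cADDis: Ensemble cells as % of IBMX/FSK response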", "assay_type_in_all_cases": "cell-based, human", "key": {"[1]": {"test_system": "wild-type and variant SNAP-GIPR", "assay": "Surface SNAP-GIPR expression (SNAP-tag labelling) in AD293 cells;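 for all read-outs here: scaled to the experimental average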", "details": "for AD293 Surface: Fig S3E, mean; for Surface SNAP-GIPR expression: sheet Fig 1C", "outline": "(§1)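 Read-out: whole-cell fluorescence of surface-only SNAP label (Alexa Fluor 647, 500 nM, 10 min, RT), wide-field 20X, several FOVs per well. Flat-field corrected, phase-contrast masked, nontransfected-well signal subtracted; normalized to experiment mean or wild-type.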"}, "[2]": {"test_system": "wild-type and variant SNAP-GIPR", "assay": "Surface SNAP-GIPR expression (SNAP-tag labelling) in INS-1 cells", "details": "Fig 4G; Mean", "outline": "as §1"}, "[3]": {"test_system": "wild-type and variant SNAP-GIPR", "assay": "Single-concentration GIP cAMP response by HTRF in AD293 cells", "details": "Fig S3F, HTRF, mean", "experimental": "(§2) All variants were tested in parallel on each occasion to control for transfection efficiency differences between experiments."}, "[4]": {"test_system": "wild-type and variant SNAP-GIPR", "assay": "Single-concentration GIP cAMP response by HTRF in INS-1 cells", "details": "Fig S3E, mean", "experimental": "as §2"}, "[5]": {"test_system": "wild-type and variant SNAP-GIPR", "assay": "cADDis cAMP imaging in AD293 cells, ensemble, expression-matched and per decile", "details": "Fig S3F, cADDis, mean", "outline": "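Surface GIPR and cAMP are measured in individual AD293 cells coexpressing SNAP-tagged receptor and the green cADDis biosensor, imaged live at 37°C. Responses are reported ensemble, expression-matched against wild-type deciles with extremes trimmed, or within each variant's own surface deciles.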"}, "[6]": {"test_system": "wild-type and variant SNAP-GIPR", "assay": "Constitutive and agonist-mediated internalization, reversible SNAP-tag labelling, AD293 cells", "parameters": "key to Internalisation, Vehicle / Internalisation, +GIP / Internalisation, GIP-only: % internalization: residual fluorescence after Mesna vs pre-Mesna; Surface expression: unit not given here", "details": "Mean", "outline": "(§3)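 Percentage internalization is read as the fraction of specific SNAP fluorescence that survives Mesna stripping, compared with the image taken before Mesna. Wells are imaged in TNE buffer at pH 8.6 and again after 10 min.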"}, "[7]": {"test_system": "wild-type and variant SNAP-GIPR", "assay": "Constitutive and agonist-mediated internalization, reversible SNAP-tag labelling, INS-1 cells", "parameters": "key to Internalisation, GIP-only / Internalisation, Vehicle / Internalisation, +GIP: % internalization: residual fluorescence after Mesna vs pre-Mesna", "details": "Mean", "outline": "as §3"}}}
{"molecule": "R404H (protein, UniProt P48546 22-466, looked up, variant R404H) Gastric inhibitory …: RAETGSKGQTAGELYQRWERYRRECQETLAAAEPPSGLACNGSFDMYVCWDYAAPNATARASCPWYLPWHHHVAAGFVLRQCGSDGQWGLWRDHTQCENPEKNEAFLDQRLILERLQVMYTVGYSLSLATLLLALLILSLFRRLHCTRNYIHINLFTSFMLRAAAILSRDRLLPRPGPYLGDQALALWNQALAACRTAQIVTQYCVGANYTWLLVEGVYLHSLLVLVGGSEEGHFRYYLLLGWGAPALFVIPWVIVRYLYENTQCWERNEVKAIWWIIRTPILMTILINFLIFIRILGILLSKLRTRQMRCRDYRLRLARSTLTLVPLLGVHEVVFAPVTEEQARGALRFAKLGFEIFLSSFQGFLVSVLYCFINKEVQSEIHRGWHHCRLRRSLGEEQRQLPERAFRALPSGSGPGEVPTSRGLSSGTLPGPGNEASRELESYC", "values": [{"measurement": "AD293 Surface", "setting": "[1]; column repeated, paired with cAMP 100 nM", "result": 0.7424}, {"measurement": "AD293 Surface", "setting": "[1]; paired with cAMP 100 pM", "result": 0.7424}, {"measurement": "Surface SNAP-GIPR expression", "setting": "[1]; replicate 1", "result": 0.7731}, {"measurement": "Surface SNAP-GIPR expression", "setting": "[1]; replicate 2", "result": 0.8601}, {"measurement": "Surface SNAP-GIPR expression", "setting": "[1]; replicate 3", "result": 1.364}, {"measurement": "Surface SNAP-GIPR expression", "setting": "[1]; replicate 4", "result": 1.202}, {"measurement": "Surface SNAP-GIPR expression", "setting": "[1]; replicate 5", "result": 0.6596}, {"measurement": "Surface SNAP-GIPR expression", "setting": "[1]; replicate 6", "result": 0.8044}, {"measurement": "Surface SNAP-GIPR expression", "setting": "[1]; replicate 7", "result": 1.014}, {"measurement": "Surface SNAP-GIPR expression", "setting": "[1]; replicate 8", "result": 0.8566}, {"measurement": "Surface SNAP-GIPR expression", "setting": "[1]; replicate 9", "result": 0.836}, {"measurement": "Surface SNAP-GIPR expression", "setting": "[1]; replicate 10", "result": 0.8174}, {"measurement": "Surface SNAP-GIPR expression", "setting": "[1]; replicate 11", "result": 0.6917}, {"measurement": "Surface SNAP-GIPR expression", "setting": "[1]; replicate 12", "result": 0.5756}, {"measurement": "Surface SNAP-GIPR expression", "setting": "[1]; replicate 13", "result": 0.812}, {"measurement": "Surface SNAP-GIPR expression", "setting": "[1]; replicate 14", "result": 0.5735}, {"measurement": "Surface SNAP-GIPR expression", "setting": "[1]; replicate 15", "result": 0.518}, {"measurement": "Surface SNAP-GIPR expression", "setting": "[1]; replicate 16", "result": 0.5844}, {"measurement": "Surface SNAP-GIPR expression", "setting": "[1]; replicate 17", "result": 0.7582}, {"measurement": "Surface SNAP-GIPR expression", "setting": "[1]; replicate 18", "result": 0.6508}, {"measurement": "Surface SNAP-GIPR expression", "setting": "[1]; replicate 19", "result": 0.4867}, {"measurement": "Surface SNAP-GIPR expression", "setting": "[1]; replicate 20", "result": 0.616}, {"measurement": "Surface SNAP-GIPR expression", "setting": "[1]; replicate 21", "result": 0.5336}, {"measurement": "Surface SNAP-GIPR expression", "setting": "[1]; replicate 22", "result": 0.6715}, {"measurement": "Surface SNAP-GIPR expression", "setting": "[1]; replicate 23", "result": 0.7341}, {"measurement": "Surface SNAP-GIPR expression", "setting": "[1]; replicate 24", "result": 0.6837}, {"measurement": "Surface SNAP-GIPR expression", "setting": "[1]; replicate 25", "result": 0.9077}, {"measurement": "Surface SNAP-GIPR expression", "setting": "[1]; replicate 26", "result": 0.65}, {"measurement": "Surface SNAP-GIPR expression", "setting": "[1]; replicate 27", "result": 0.7009}, {"measurement": "Surface SNAP-GIPR expression", "setting": "[1]; replicate 28", "result": 0.5824}, {"measurement": "Surface SNAP-GIPR expression", "setting": "[1]; replicate 29", "result": 0.9349}, {"measurement": "Surface SNAP-GIPR expression", "setting": "[1]; replicate 30", "result": 0.779}, {"measurement": "Surface SNAP-GIPR expression", "setting": "[1]; replicate 31", "result": 0.9227}, {"measurement": "Surface SNAP-GIPR expression", "setting": "[1]; replicate 32", "result": 0.586}, {"measurement": "Surface SNAP-GIPR expression", "setting": "[1]; replicate 33", "result": 0.6419}, {"measurement": "Surface SNAP-GIPR expression", "setting": "[1]; replicate 34", "result": 0.7664}, {"measurement": "Surface SNAP-GIPR expression", "setting": "[1]; replicate 35", "result": 0.5787}, {"measurement": "Surface SNAP-GIPR expression", "setting": "[1]; replicate 36", "result": 0.8557}, {"measurement": "Surface SNAP-GIPR expression", "setting": "[1]; replicate 37", "result": 0.7468}, {"measurement": "Surface SNAP-GIPR expression", "setting": "[1]; replicate 38", "result": 0.7266}, {"measurement": "Surface SNAP-GIPR expression", "setting": "[1]; replicate 39", "result": 0.577}, {"measurement": "Surface SNAP-GIPR expression", "setting": "[1]; replicate 40", "result": 0.6491}, {"measurement": "Surface SNAP-GIPR expression", "setting": "[1]; replicate 41", "result": 0.7544}, {"measurement": "Surface expression", "setting": "[2]", "result": 0.8156}, {"measurement": "AD293 100 pM HTRF", "setting": "[3]; AD293, 100 pM", "result": 0.3628}, {"measurement": "AD293 100 nM HTRF", "setting": "[3]; AD293, 100 nM", "result": 1.255}, {"measurement": "INS-1 cAMP (100 nM)", "setting": "[4]", "result": 0.9867}, {"measurement": "AD293 100 pM cADDis", "setting": "[5]; AD293, 100 pM", "result": 26.6869}, {"measurement": "AD293 100 nM cADDis", "setting": "[5]; AD293, 100 nM", "result": 37.59}, {"measurement": "+GIP internalisation (100 nM)", "setting": "[6]; Fig 4E, GIP 100 nM", "result": 0.4112}, {"measurement": "GIP-specific internalisation (100 nM)", "setting": "[6]; Fig 4E, GIP 100 nM", "result": 0.07509}, {"measurement": "Constitutive internalisation (100 nM)", "setting": "[6]; Fig 4E", "result": 0.3361}, {"measurement": "Surface expression", "setting": "[6]; Fig 4E", "result": 0.7754}, {"measurement": "Internalisation, +GIP", "setting": "[6]; Fig S4C, AD293", "result": 56.8624}, {"measurement": "Internalisation, GIP-only", "setting": "[6]; Fig S4C, AD293", "result": 10.8785}, {"measurement": "Internalisation, Vehicle", "setting": "[6]; Fig S4C, AD293", "result": 45.9839}, {"measurement": "+GIP internalisation (100 nM)", "setting": "[7]; Fig 4G, GIP 100 nM", "result": 0.3918}, {"measurement": "GIP-specific internalisation (100 nM)", "setting": "[7]; Fig 4G, GIP 100 nM", "result": 0.07675}, {"measurement": "Constitutive internalisation (100 nM)", "setting": "[7]; Fig 4G", "result": 0.3151}, {"measurement": "Internalisation, +GIP", "setting": "[7]; Fig S4C, INS-1", "result": 48.5}, {"measurement": "Internalisation, GIP-only", "setting": "[7]; Fig S4C, INS-1", "result": 9.682}, {"measurement": "Internalisation, Vehicle", "setting": "[7]; Fig S4C, INS-1", "result": 38.8183}]}
